Article PMC7541710

Target: MR1-restricted antigen synthesized by S. Typhimurium and highly abundant in that microbe peptide on MR1 (human)
Experiment: T cell clone or line
[1] = chains alpha TRAV1-2 TRAJ33 CDR3:beta TRBV3-1 TRBJ2-2 CDR3

B1: 571F3-2 (peptide)
chain 1: CAVRDSNYQLI
chain 2: CASSEASGGTDTQY
**Q.** Which geometric MFI (chains alpha TRAV1-2 TRAJ33 CDR3:beta TRBV6-4 TRBJ2-3 CDR3) does the source give for B1 here?
**A.** The geometric MFI was 2760.

B2: 427D8-2 (peptide)
chain 1: CAVMDSNYQLI
chain 2: CASSLLRQGTEKLF
**Q.** Which geometric MFI (chains alpha TRAV1-2 TRAJ33 CDR3:beta TRBV5-1 TRBJ1-4 CDR3) does the source give for B2 here?
**A.** The geometric MFI was 3440.

B3: 450A9 (peptide)
chain 1: CAVRDSNYQLI
chain 2: CSAREVEGTYEQY
**Q.** B3 was tested. Which geometric MFI (chains alpha TRAV1-2 TRAJ33 CDR3:beta TRBV20-1 TRBJ2-7 CDR3) did it give?
**A.** The geometric MFI was 2030.

B4: D0033A2 (peptide)
chain 1: CAVTDSNYQLI
chain 2: CASSQAETELNTGELF
**Q.** B4 was tested. Which geometric MFI [1] did it give?
**A.** Its geometric MFI is 2480.

B5: D0033A6 (peptide)
chain 1: CAVVDSNYQLI
chain 2: CASSHSSGTGGNEQF
**Q.** With B5 as the binder, how does the geometric MFI (chains alpha TRAV1-2 TRAJ33 CDR3:beta TRBV4-2 TRBJ2-1 CDR3) read?
**A.** The geometric MFI was 2620.

B6: D0033A10 (peptide)
chain 1: CAVTDSNYQLI
chain 2: CASSSGLEVTGELF
**Q.** For B6, which geometric MFI [1] is on record?
**A.** The geometric MFI was 2130.

B7: 450B9 (peptide)
chain 1: CAVMDSNYQLI
chain 2: CASTPSGEFSEAF
**Q.** With B7 as the binder, how does the geometric MFI (chains alpha TRAV1-2 TRAJ33 CDR3:beta TRBV6-1 TRBJ1-1 CDR3) read?
**A.** Its geometric MFI is 2520.

B8: 403A9 (peptide)
chain 1: CAVVDSNYQLI
chain 2: CSARDGGEAYNEQF
**Q.** B8 was tested. Which geometric MFI (chains alpha TRAV1-2 TRAJ33 CDR3:beta TRBV20-1 TRBJ2-1 CDR3) did it give?
**A.** The geometric MFI was 1600.
